Source: the supplement of paper PMC10567573

B1: FBXO3 (parent)
chain: HDPLWRRHCKKYWLISEEEKTQKN

Variants of: B1
Test: protein stability index of a GFP-peptide fusion (GPS, HEK-293T) (PSI 1-6); higher = more stable
Conditions: c terminus: a fixed tail appended
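Note: lentivirally expressed fusions sorted by FACS into six bins by GFP to DsRed ratio, PSI derived from sequencing read proportions per bin multiplied by bin number.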

Protein stability index: each site, then its substitutions
P3: C 3.02; D 3.33; E 3.45; F 2.41; G 3.1; H 2.97; I 3.08; K 3.03; L 3.12; M 3.33; N 3.49; Q 3.5; R 2.91; S 3.38; T 3.84; V 3.84; W 2.44; Y 2.75
L4: A 2.92; C 3.51; D 4.6; E 2.9; F 3.52; G 3.75; H 3.45; I 2.93; K 2.95; M 3.26; N 3.52; P 3.73; Q 3.88; R 2.33; S 3.87; T 4.35; V 3.32; W 3.63; Y 3.45
W5: A 4.33; C 3.77; D 4.18; E 4.07; F 4.56; G 3.96; H 3.94; I 3.99; K 3.62; L 4.35; M 4.39; N 3.89; P 3.78; Q 4.25; R 3.42; S 4.08; T 4.76; V 3.81; Y 4.71
R6: A 2.99; C 3.35; D 4.04; E 4.24; F 2.84; G 3.6; H 3.51; I 2.58; K 3.32; L 2.89; M 3.58; N 3.85; P 1.82; Q 3.54; S 3.69; T 3.43; V 2.98; W 2.46; Y 2.7
R7: A 3.39; C 2.95; D 3.8; E 3.31; F 2.21; G 4.02; H 3.02; I 3.14; K 3.22; L 3.14; M 2.86; N 3.46; P 4.42; Q 3.54; S 3.46; T 3.53; V 2.71; W 2.68; Y 2
H8: A 2.63; C 2.03; D 4.29; E 3.63; F 1.73; G 3.31; I 1.63; K 2.89; L 1.88; M 2.23; N 3.15; P 3.4; Q 3.72; R 3; S 2.73; T 2.79; V 2.56; W 1.88; Y 2.2
C9: A 3.57; D 4.83; E 4.37; F 2.65; G 4.08; H 3.42; I 3.58; K 3.59; L 2.93; M 2.55; N 4.14; P 4.15; Q 3.9; R 3.68; S 3.27; T 3.7; V 3.8; W 3.16; Y 3.31
K10: A 2.91; C 2.27; D 4.05; E 3.81; F 2.77; G 3.41; H 3.27; I 2.02; L 2.34; M 2.28; N 3.51; P 4.06; Q 3.28; R 3.06; S 3.32; T 2.71; V 2.57; W 2.95; Y 2.52
K11: A 3.6; C 2.63; D 3.12; E 3.59; F 2.4; G 2.7; H 3.26; I 2.27; L 1.93; M 2.44; N 2.65; P 2.67; Q 3.45; R 3.35; S 2.79; T 2.71
